Results taken from paper doi:10.1101/2024.01.24.576984 (bioRxiv, 2024).

B1: hsZNF655(93-119) (peptide)
chain: EDRLERLQEILRKFLYLEREFRQITIS
B2: GFP-hsZNF608 (24-40) (peptide)
chain: DDWEIGVGNLIIDLDAD
B3: GFP-hsHDGF S2E (130-146) (peptide)
chain: EGEEDEEGKLVIDEPAK
B4: GFP-hsZNF609 (25-41) (peptide)
chain: DEWDIGVGNLIIDLDAD
B5: GFP-hsHDGF (130-146) (peptide)
chain: EGSSDEEGKLVIDEPAK
B6: GFP-hsZEB2 (33-50) (peptide)
chain: DTGSETDEEDKLHIAEDD
B7: GFP-hsTLE3 (238-255) (peptide)
chain: YDSDGDKSDDLVVDVSNE
B8: GFP-hsZNF655 (93-119) (peptide)
chain: EDRLERLQEILRKFLYLEREFRQITIS

molecular target: hsINTS13(1-256Δ27-48) (human, UniProt Q9NVM9 1-256, Δ27-48); assay: crystal structure

| binding result | Binder |
| --- | --- |
| binds | B1 |

molecular target: 2S-hsINTS13-hsINTS14 (human, UniProt Q9NVM9;Q96SY0); assay: fluorescence polarisation

| Kd | Binder |
| --- | --- |
| 633 nM | B2 |
| 2630 nM | B3 |
| 573 nM | B4 |
| 5850 nM | B5 |
| > 10000 nM | B6 |
| > 10000 nM | B7 |
| 17.6 nM | B8 |
